Results: paper PMC11677724, “Preclinical Study of a Dual-Target Molecular Probe Labeled with ^68Ga Targeting SSTR2 and FAP” (Pharmaceuticals, 2024)
Read-outs that look alike come from different tables or passages of the source.

Tests used:
[1] = Partition coefficient (log P), n-octanol/PBS; assay type: physicochemical; details: shake-flask n-octanol/PBS (0.1 mol/L, pH 7.4), 14.8 MBq in 100 µL, vortexed 2 min at room temperature, centrifuged 3000 rpm 5 min, γ-counter CPM; mean ± SD, repeated three times; read-out: Log p
Method: In a 15 mL centrifuge tube, 2.9 mL of PBS (0.1 mol/L, pH = 7.4) and 3 mL of n-octanol were added. [^68Ga]Ga-TATE-46, [^68Ga]Ga-DOTA-TATE, or [^68Ga]Ga-FAPI-46 (14.8 MBq, 100 µL) were added to each tube. The mixture was vortexed at room temperature for 2 min to ensure thorough blending, and then centrifuged at room temperature (effective centrifuge radius 12 cm, 3000 rpm) for 5 min. After allowing sufficient time for phase separation, three 500 µL samples were taken from each layer. The radioactivity of each sample was measured using a γ-counter (count per minute, CPM), and log p = log (n-octanol CPM/water CPM) was calculated. The experiment was repeated three times.

[2] = Ex vivo biodistribution in NCI-H727 tumor-bearing mice; details: female, BALB/c nude, mouse, in vivo, 1.48 MBq, total radioactivity, γ-counter, mean ± SD, n=3; for tissue uptake at 0.5 h: 0.5 h p.i.; for tissue uptake at 1 h: 1 h p.i.; for tissue uptake at 2 h: 2 h p.i.; for tissue uptake at 4 h: 4 h p.i.
Method: (§1) Female BALB/c nude mice were obtained from Charles River Laboratories (Beijing, China). […] Approximately 5 × 10^6 cells were implanted into the right shoulder of each mouse to establish an NCI-H727 tumor model and Mc38 tumor model. Once the tumor volume reached 200–300 mm^3, the mice were used for imaging or biodistribution studies. All animal experiments were carried out in accordance with the National Institutes of Health Guidelines for the Care and Use of Laboratory Animals and were approved by the Animal Protection and Utilization Committee of the General Hospital of the PLA (Approval No.: S2023-209-1).
The NCI-H727 tumor-bearing mice were randomly assigned to four groups (with three mice in each group) and were injected with [^68Ga]Ga-TATE-46 (1.48 MBq, 100 µL). The mice were put to death at 0.5, 1, 2, and 4 h post-injection (p.i.). The tissues and organs of concern were gathered, weighed, and measured for radioactivity using a γ-counter. Additionally, [^68Ga]Ga-DOTA-TATE and [^68Ga]Ga-FAPI-46 were used as control groups in the biodistribution study of the NCI-H727 tumor model at 1 h p.i. After performing time decay correction, the radiotracer uptake in each tissue and organ was calculated as %ID/g.

[3] = Micro PET imaging with ROI quantification, MC38 tumor-bearing mice; assay type: in vivo; details: female, BALB/c nude, mouse, iv, total radioactivity, 1 h p.i., 5.55–7.4 MBq tail vein, MC38 tumors (SSTR2/FAP, negative), read-out: uptake in MC38 tumors (ROI quantitative analysis of PET images)
Method: as §1
Each set of NCI-H727 tumor xenograft models (n = 3) was administered with [^68Ga]Ga-TATE-46, [^68Ga]Ga-DOTA-TATE, or [^68Ga]Ga-FAPI-46 (5.55–7.4 MBq, 150 µL/mouse) through the tail vein. Static PET scans were performed at 30 min, 1 h, 2 h, and 4 h after injection for 10 min each. In blocking studies, unlabeled precursors (FAPI-46, DOTA-TATE, FAPI-46 + DOTA-TATE, 10 mg/kg) were co-injected with [^68Ga]Ga-TATE-46. After image acquisition, the images were reconstructed using the three-dimensional ordered subset expectation maximization (3D-OSEM) algorithm and analyzed on the Recon/Avator-s-10 workstation. The percentage of injected dose per gram of tissue (%ID/g) was determined by delineating regions of interest.

[4] = tested on: MC38 cells (SSTR2/FAP, negative); experiment: Cell uptake in MC38 cells (negative control); assay type: cell-based; details: 1.48×10^4 Bq/well, all time points, all p < 0.001
Method: The NCI-H727 and Mc38 cell lines were supplied by the Stem Cell Bank of the Chinese Academy of Sciences and were cultivated in Roswell Park Memorial Institute (RPMI-1640) medium with 10% (v/v) fetal bovine serum (FBS) at 37 °C with 5% CO2. All cells were cultured until they reached 80–90% confluence before undergoing trypsinization.
In blocking experiments, an excessive amount of unlabeled FAPI-46, DOTA-TATE, or FAPI-46 + DOTA-TATE (10 µg/well) was added as an inhibitor along with [^68Ga]Ga-TATE-46 to the cells. After 1 h, the cells were processed using the same method. Finally, the cell lysates were gathered, and the radioactivity was measured using a γ-counter. Mc38 cells were used as a negative control, with only [^68Ga]Ga-TATE-46 (1.48 × 10^4 Bq/well, 100 µL) added, and the rest of the procedure was followed as described above.

[5] = In vitro stability in physiological saline/PBS or FBS, radio-HPLC; assay type: in vitro ADME; details: 1.85 MBq in 5 µL, 37 °C, 2 h
Method: A measure of 5 µL of [^68Ga]Ga-TATE-46 (1.85 MBq) was added to 300 µL of PBS or FBS and incubated at 37 °C for 2 h. Subsequently, the radiochemical purity was determined using HPLC.

[6] = NCI-H727 tumor, read-out: Biodistribution, Tumor (tumor uptake)
[7] = NCI-H727 tumor-bearing mice, read-out: Biodistribution, Blood
[8] = NCI-H727 tumor-bearing mice, read-out: Biodistribution, Bone
[9] = NCI-H727 tumor-bearing mice, read-out: Biodistribution, Brain
[10] = NCI-H727 tumor-bearing mice, read-out: Biodistribution, Heart
[11] = NCI-H727 tumor-bearing mice, read-out: Biodistribution, Intestine
[12] = NCI-H727 tumor-bearing mice, read-out: Biodistribution, Kidney
[13] = NCI-H727 tumor-bearing mice, read-out: Biodistribution, Liver
[14] = NCI-H727 tumor-bearing mice, read-out: Biodistribution, Lung
[15] = NCI-H727 tumor-bearing mice, read-out: Biodistribution, Muscle
[16] = NCI-H727 tumor-bearing mice, read-out: Biodistribution, Spleen
[17] = NCI-H727 tumor-bearing mice, read-out: Biodistribution, Stomach

SMILES: C[C@@H](O)[C@H](NC(=O)[C@@H]1CSSC[C@H](NC(=O)[C@@H](Cc2ccccc2)NC(=O)CCCCCNC(=O)CCCCCNC(=O)[C@H](Cc2ccccc2)NC(=O)C(CCC(=O)N[C@@H](Cc2ccccc2)C(=O)NCCCCCC(=O)NCCCCCC(=O)N2CCN(CCCN(C)c3ccc4nccc(C(=O)NCC(=O)N5CC(F)(F)C[C@H]5C#N)c4c3)CC2)NC(=O)CN2CCN(CC(=O)O)CCN(CC(=O)O)CCN(CC(=O)O)CC2)C(=O)N[C@@H](Cc2ccc(O)cc2)C(=O)N[C@H](Cc2c[nH]c3ccccc23)C(=O)N[C@@H](CCCCN)C(=O)N[C@@H]([C@@H](C)O)C(=O)N1)C(=O)O (some centres unmarked) [[^68Ga]Ga-TATE-46, metal not drawn]
- logD [1]: -0.2 ± 0.05
- tissue uptake at 0.5 h [2, 6]: 3.56 ± 0.69 %ID/g
- tissue uptake at 0.5 h [2, 7]: 13.5 ± 2.03 %ID/g
- tissue uptake at 0.5 h [2, 8]: 4.84 ± 0.25 %ID/g
- tissue uptake at 0.5 h [2, 9]: 0.37 ± 0.06 %ID/g
- tissue uptake at 0.5 h [2, 10]: 4.71 ± 0.3 %ID/g
- tissue uptake at 0.5 h [2, 11]: 4.58 ± 2.16 %ID/g
- tissue uptake at 0.5 h [2, 12]: 23.9 ± 8.92 %ID/g
- tissue uptake at 0.5 h [2, 13]: 10 ± 2.51 %ID/g
- tissue uptake at 0.5 h [2, 14]: 7.03 ± 1.58 %ID/g
- tissue uptake at 0.5 h [2, 15]: 2.4 ± 0.48 %ID/g
- tissue uptake at 0.5 h [2, 16]: 4.48 ± 0.72 %ID/g
- tissue uptake at 0.5 h [2, 17]: 6.84 ± 0.73 %ID/g
- tissue uptake at 1 h [2, 6]: 7.53 ± 1.13 %ID/g
- tissue uptake at 1 h [2, 7]: 11.3 ± 2.53 %ID/g
- tissue uptake at 1 h [2, 8]: 4.8 ± 1.08 %ID/g
- tissue uptake at 1 h [2, 9]: 0.36 ± 0.03 %ID/g
- tissue uptake at 1 h [2, 10]: 4.15 ± 0.83 %ID/g
- tissue uptake at 1 h [2, 11]: 3.74 ± 0.72 %ID/g
- tissue uptake at 1 h [2, 12]: 37 ± 3.89 %ID/g
- tissue uptake at 1 h [2, 13]: 10.5 ± 2.84 %ID/g
- tissue uptake at 1 h [2, 14]: 5.51 ± 0.97 %ID/g
- tissue uptake at 1 h [2, 15]: 2.39 ± 0.49 %ID/g
- tissue uptake at 1 h [2, 16]: 4.01 ± 0.79 %ID/g
- tissue uptake at 1 h [2, 17]: 6.68 ± 0.95 %ID/g
- tissue uptake at 2 h [2, 6]: 7.08 ± 0.88 %ID/g
- tissue uptake at 2 h [2, 7]: 6.13 ± 0.61 %ID/g
- tissue uptake at 2 h [2, 8]: 4.65 ± 0.87 %ID/g
- tissue uptake at 2 h [2, 9]: 0.23 ± 0.04 %ID/g
- tissue uptake at 2 h [2, 10]: 2.41 ± 0.35 %ID/g
- tissue uptake at 2 h [2, 11]: 2.85 ± 1.12 %ID/g
- tissue uptake at 2 h [2, 12]: 26.5 ± 4.77 %ID/g
- tissue uptake at 2 h [2, 13]: 8.4 ± 0.12 %ID/g
- tissue uptake at 2 h [2, 14]: 3.67 ± 0.68 %ID/g
- tissue uptake at 2 h [2, 15]: 2.36 ± 0.14 %ID/g
- tissue uptake at 2 h [2, 16]: 3.05 ± 0.38 %ID/g
- tissue uptake at 2 h [2, 17]: 6.18 ± 0.43 %ID/g
- tissue uptake at 4 h [2, 6]: 6.48 ± 1.82 %ID/g
- tissue uptake at 4 h [2, 7]: 4.09 ± 0.21 %ID/g
- tissue uptake at 4 h [2, 8]: 4.49 ± 0.06 %ID/g
- tissue uptake at 4 h [2, 9]: 0.24 ± 0.02 %ID/g
- tissue uptake at 4 h [2, 10]: 1.9 ± 0.09 %ID/g
- tissue uptake at 4 h [2, 11]: 1.82 ± 1.11 %ID/g
- tissue uptake at 4 h [2, 12]: 22.4 ± 6.23 %ID/g
- tissue uptake at 4 h [2, 13]: 8.08 ± 0.87 %ID/g
- tissue uptake at 4 h [2, 14]: 2.69 ± 0.17 %ID/g
- tissue uptake at 4 h [2, 15]: 2.36 ± 0.32 %ID/g
- tissue uptake at 4 h [2, 16]: 3.04 ± 0.09 %ID/g
- tissue uptake at 4 h [2, 17]: 5.05 ± 0.01 %ID/g
- tissue uptake at 1 h [3]: 2.05 ± 0.09 %ID/g
- cellular uptake in MC38 cells compared to NCI-H727 cells [4]: significantly lower
- In vitro stability in FBS (HPLC chromatogram) ([5]; 300 µL FBS): only one peak
- In vitro stability in physiological saline (HPLC chromatogram) ([5]; physiological saline (method: 300 µL PBS)): only one peak
